Test results from patent US12460006B2, “Antibodies against integrin alpha 11 beta 1” (Momenta Pharmaceuticals, Inc., priority 2019, dated 2025).

T1: α11β1 expressed on the surface of CHO-K1 cells (Homo sapiens, UniProt Q9UKX5)
T1 construct: expressed in transfected cells; host or cells: CHO-K1
T1 sequence (Q9UKX5 23-1188): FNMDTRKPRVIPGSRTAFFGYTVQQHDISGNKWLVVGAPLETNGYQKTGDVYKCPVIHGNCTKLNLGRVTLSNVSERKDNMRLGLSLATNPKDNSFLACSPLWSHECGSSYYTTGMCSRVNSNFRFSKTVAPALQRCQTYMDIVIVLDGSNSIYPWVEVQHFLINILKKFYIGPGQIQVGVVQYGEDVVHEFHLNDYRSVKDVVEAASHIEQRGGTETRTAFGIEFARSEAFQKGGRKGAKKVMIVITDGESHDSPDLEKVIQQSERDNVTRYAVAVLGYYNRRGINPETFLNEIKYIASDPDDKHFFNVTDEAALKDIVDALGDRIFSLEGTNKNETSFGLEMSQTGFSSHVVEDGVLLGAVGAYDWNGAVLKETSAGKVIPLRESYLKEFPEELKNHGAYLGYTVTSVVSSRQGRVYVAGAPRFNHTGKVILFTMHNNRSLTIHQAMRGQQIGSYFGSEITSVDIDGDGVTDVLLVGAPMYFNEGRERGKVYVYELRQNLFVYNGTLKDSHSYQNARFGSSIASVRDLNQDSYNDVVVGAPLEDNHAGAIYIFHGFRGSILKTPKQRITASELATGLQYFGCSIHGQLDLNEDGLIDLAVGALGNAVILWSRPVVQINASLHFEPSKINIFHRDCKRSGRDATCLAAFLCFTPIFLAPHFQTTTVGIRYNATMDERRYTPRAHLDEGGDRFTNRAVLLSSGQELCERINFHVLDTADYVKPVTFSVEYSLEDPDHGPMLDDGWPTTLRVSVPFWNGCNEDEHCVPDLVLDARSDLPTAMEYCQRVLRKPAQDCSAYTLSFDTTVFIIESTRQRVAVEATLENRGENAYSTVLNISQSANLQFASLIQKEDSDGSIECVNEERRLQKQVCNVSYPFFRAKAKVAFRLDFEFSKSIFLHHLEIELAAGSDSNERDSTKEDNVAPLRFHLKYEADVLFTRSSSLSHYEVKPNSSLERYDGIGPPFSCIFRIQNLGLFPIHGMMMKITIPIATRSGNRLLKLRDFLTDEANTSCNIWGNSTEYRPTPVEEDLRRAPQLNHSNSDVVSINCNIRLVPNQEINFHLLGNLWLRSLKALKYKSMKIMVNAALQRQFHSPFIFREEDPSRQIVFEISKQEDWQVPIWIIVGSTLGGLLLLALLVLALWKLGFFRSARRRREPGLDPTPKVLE


How the values were obtained:
[1] = tested on: CHO-K1 cells expressing human α11; assay: Cell adhesion inhibition (xCelligence), type I collagen; format: cell-based; conditions: Yes/No
Summary of the method: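 CHO-K1 cells expressing human α11 (0.6×10^6 cells/mL) were preincubated with mAbs across a concentration range for 20 min at 37° C, then seeded on wells coated with 100 ng/mL type I collagen and blocked with 3% BSA. Impedance-based adhesion was recorded over 6 h, and maximum adhesion was compared with untreated control.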

human α11β1 = human α11β1 (Homo sapiens, UniProt Q9UKX5); assay: ELISA binding to recombinant human α11β1; conditions: binding Yes/No
Summary of the method: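 First, wells were coated overnight at 4° C with 0.25 μg/mL recombinant α11β1 from human or mouse. Next came BSA blocking and a range of antibody concentrations for 1 h at room temperature. Finally, biotin anti-IgG, streptavidin-HRP and TMB development gave the 450 nm signal.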

[2] = biological target: T1, α11β1 expressed on the surface of CHO-K1 cells; assay: FACS antibody binding to CHO-K1 cells expressing human α11; conditions: binding Yes/No
Summary of the method: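 Wild-type or human α11-transfected CHO-K1 cells (endogenous β1) were incubated with antibody at varied concentrations for 30 min at 4° C, then secondary antibody (1:100) 30 min at 4° C. Cells were PFA-fixed and read by flow cytometry; binding EC50 estimated from FACS data.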

human α11β1, sequence (P05556 21-728 partner limits assumed, one chain of several): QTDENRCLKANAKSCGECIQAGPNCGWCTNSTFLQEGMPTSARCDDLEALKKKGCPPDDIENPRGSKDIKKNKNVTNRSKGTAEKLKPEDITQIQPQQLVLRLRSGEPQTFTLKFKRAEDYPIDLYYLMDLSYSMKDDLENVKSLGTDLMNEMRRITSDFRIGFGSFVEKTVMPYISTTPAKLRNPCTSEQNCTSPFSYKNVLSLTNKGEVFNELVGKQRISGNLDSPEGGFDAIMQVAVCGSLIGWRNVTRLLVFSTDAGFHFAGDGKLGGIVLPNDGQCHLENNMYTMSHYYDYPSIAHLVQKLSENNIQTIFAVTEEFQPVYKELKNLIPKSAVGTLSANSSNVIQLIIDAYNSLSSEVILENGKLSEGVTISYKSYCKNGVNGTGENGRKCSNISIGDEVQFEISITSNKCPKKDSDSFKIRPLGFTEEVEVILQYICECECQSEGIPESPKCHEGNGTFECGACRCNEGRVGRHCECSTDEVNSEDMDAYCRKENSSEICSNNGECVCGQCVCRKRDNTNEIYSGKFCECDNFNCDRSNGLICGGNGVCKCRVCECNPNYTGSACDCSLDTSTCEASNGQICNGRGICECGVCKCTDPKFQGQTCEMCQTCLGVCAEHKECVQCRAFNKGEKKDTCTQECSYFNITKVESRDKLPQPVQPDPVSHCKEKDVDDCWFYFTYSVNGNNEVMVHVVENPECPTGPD

Row | Molecule | Inhibition of CHO-K1 adhesion to collagen [1] | Human α11β1 ELISA (human α11β1) | CHO-K1 FACS [2]
1 | 3B1: rabbit anti-α11β1 mAb; heavy chain SEQ ID NO: 201, light chain SEQ ID NO: 202 (antibody) heavy: METGLRWLLLVAVLKGVQCQEQLEESGGGLVKPEGSLTLTCKASGFDLSSGYDMCWVRQAPGKGLEWIACIYADYSGSTYYASWVNGRFTISSSTSLNTVDLKMTSLTAADTATYFCARGATGNGGYGYYFNLWGPGTLVTVSSGQPKAPSVFPLAPCCGDTPSSTVTLGCLVKGYLPEPVTVTWNSGTLTNGVRTFPSVRQSSGLYSLSSVVSVTSSSQPVTCNVAHPATNTKVDKTVAPSTCSKPMCPPPELPGGPSVFIFPPKPKDTLMISRTPEVTCVVVDVSQDDPEVQFTWYINNEQVRTARPPLREQQFNSTIRVVSTLPIAHQDWLRGKEFKCKVHNKALPAPIEKTISKARGQPLEPKVYTMGPPREELSSRSVSLTCMINGFYPSDISVEWEKNGKAEDNYKTTPTVLDSDGSYFLYSKLSVPTSEWQRGDVFTCSVMHEALHNHYTQKSISRSPGK light: MDTRAPTQLLGLLLLWLPGARCADIVMTQTPASVSEPVGGTVTIKCQASQNINSGLAWYQQKPGQPPKLLIYKASTLASGVSSRFKGSGSGTEFTLTISDLECADAATYYCQTYYYSSSSSDNAFGGGTEVVVKGDPVAPTVLIFPPAADQVATGTVTIVCVANKYFPDVTVTWEVDGTTQTTGIENSKTPQNSADCTYNLSSTLTLTSTQYNSHKEYTCKVTQGTTSVVQSFNRGDC | Yes | Yes | Yes
2 | 10-L15: mouse anti-α11β1 mAb; VH SEQ ID NO: 119, VL SEQ ID NO: 120 (antibody, V domains shown) VH: QVQLQQSGPELVRPGASVKMSCKASGYTFTSYWMHWVKQRPGQGLEWIGMIDPSNSETWLNQKFKDKATLNVDKSSNTAYMQLSSLTSEDSAVYYCARYDGYYDYWGQGTTLTVSS VL: NIVLTQSPASLAVSLGQRATISCRASESVDSYGNSFMHWYQQKPGQPPKLLIYLASNVESGVPARFSGSGSRTDFTLTIDPVEADDAATYYCQQNNEDPWTFGGGTKLEIK | No | Yes | No
